From the supplement of paper PMC7125110
± gives the standard error. For some assays here: This sample holds only a part of the variants without activity.

B1: glmS ribozyme (parent)
chain: AUAAAAGCGCCAGAACUACAGAAAUGUAGUUGACGAGGAGGAGGUUUAUCGAAUUUUCGGCGGAUGCCUCCAAA

Legend:
Settings in all cases: with glucosamine-6-phosphate
glucosamine-6-phosphate [1] = variants of: B1; experiment: kcat; higher = faster cleavage; RNA array
Method in brief: (§1)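 Glucosamine-6-phosphate, from 40 μM to 10 mM in HEPES/KCl/Mg(OAc)2 buffer, was flowed over sequenced MiSeq chips carrying barcoded ribozyme variants transcribed in situ by E. coli RNA polymerase. A hybridised Cy3 probe tracked the variants at 37 °C as tiles were imaged over ~14 h. kobs, kcat and KM were obtained by fitting normalised per-tile medians to exponential decays and then applying weighted Michaelis–Menten fits across concentrations.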

glucosamine-6-phosphate [2] = variants of: B1; experiment: self-cleavage kobs at 160 uM GlcN6P; higher = faster cleavage; RNA array
Method in brief: as §1

glucosamine-6-phosphate [3] = variants of: B1; experiment: KM; higher = weaker cofactor use; RNA array
Method in brief: as §1

glucosamine-6-phosphate [4] = variants of: B1; experiment: self-cleavage kobs at 10000 uM GlcN6P; higher = faster cleavage; RNA array
Method in brief: as §1

glucosamine-6-phosphate [5] = variants of: B1; experiment: self-cleavage kobs at 2500 uM GlcN6P; higher = faster cleavage; RNA array
Method in brief: as §1

glucosamine-6-phosphate [6] = variants of: B1; experiment: self-cleavage kobs at 40 uM GlcN6P; higher = faster cleavage; RNA array
Method in brief: as §1

glucosamine-6-phosphate [7] = variants of: B1; experiment: self-cleavage kobs at 640 uM GlcN6P; higher = faster cleavage; RNA array
Method in brief: as §1

Variant	kcat (glucosamine-6-phosphate [1])	self-cleavage kobs at 160 uM GlcN6P (glucosamine-6-phosphate [2])	KM (glucosamine-6-phosphate [3])	self-cleavage kobs at 10000 uM GlcN6P (glucosamine-6-phosphate [4])	self-cleavage kobs at 2500 uM GlcN6P (glucosamine-6-phosphate [5])	self-cleavage kobs at 40 uM GlcN6P (glucosamine-6-phosphate [6])	self-cleavage kobs at 640 uM GlcN6P (glucosamine-6-phosphate [7])
C58A A64G C71A	2.69e-05 ± 7.4e-06 s⁻¹						
G59U G62U C67G	< 1e-05 s⁻¹	< 1e-05 s⁻¹					
C61U C71G	< 1e-05 s⁻¹	< 1e-05 s⁻¹					
G60A A64G	2.24e-05 ± 4.8e-07 s⁻¹		1390 ± 160 µM				
G59A C67U	4.36e-05 ± 1.3e-05 s⁻¹			3.54e-05 ± 9.1e-06 s⁻¹			
G62C U69G	1.62e-05 ± 2.9e-06 s⁻¹						
C58U C67U	2.38e-05 ± 3.4e-06 s⁻¹			2.01e-05 ± 6.4e-06 s⁻¹	2.92e-05 ± 8e-06 s⁻¹		
U56C U69C	3.67e-05 ± 7.4e-06 s⁻¹			3.13e-05 ± 1.3e-05 s⁻¹		< 1e-05 s⁻¹	
U56C G66A	0.00312 ± 0.0012 s⁻¹	8.16e-05 ± 1.9e-05 s⁻¹		0.0022 ± 0.00026 s⁻¹	0.00117 ± 0.00022 s⁻¹	6.93e-05 ± 1.3e-05 s⁻¹	0.000501 ± 8.4e-05 s⁻¹
G63U U69G	2.86e-05 ± 7.3e-06 s⁻¹	3.51e-05 ± 1.5e-05 s⁻¹					3.96e-05 ± 1.5e-05 s⁻¹
C70A C71U	9.41e-05 ± 4.3e-06 s⁻¹	2.83e-05 ± 1e-05 s⁻¹	384 ± 58 µM		8.22e-05 ± 1e-05 s⁻¹		5.75e-05 ± 1e-05 s⁻¹
C70A C71G	5.62e-05 ± 4.3e-06 s⁻¹	3.29e-05 ± 1.1e-05 s⁻¹		5.37e-05 ± 7.8e-06 s⁻¹	5.08e-05 ± 7.8e-06 s⁻¹		5.81e-05 ± 7.8e-06 s⁻¹
U57G C58G C68U	4.52e-05 ± 1.6e-05 s⁻¹						7.15e-05 ± 2.1e-05 s⁻¹
C10U C50G		9.85e-05 ± 1.3e-05 s⁻¹	51.5 ± 26 µM	0.000116 ± 3e-05 s⁻¹	0.00051 ± 0.0002 s⁻¹	6.14e-05 ± 1e-05 s⁻¹	0.000136 ± 1.7e-05 s⁻¹
U69C C71U	0.000591 ± 7.2e-05 s⁻¹	0.000208 ± 5.6e-05 s⁻¹	368 ± 88 µM	0.000676 ± 0.00011 s⁻¹	0.000432 ± 9.4e-05 s⁻¹	5.8e-05 ± 1.1e-05 s⁻¹	0.000326 ± 9.3e-05 s⁻¹
G59C C67A	< 1e-05 s⁻¹			< 1e-05 s⁻¹		< 1e-05 s⁻¹	
C61G U69G	1.73e-05 ± 4.8e-06 s⁻¹						
G59A U65C	1.55e-05 ± 5.6e-06 s⁻¹						
G60C C70U	< 1e-05 s⁻¹	< 1e-05 s⁻¹					
U57A C68G	3.34e-05 ± 1.3e-05 s⁻¹				4.55e-05 ± 1.7e-05 s⁻¹		6.21e-05 ± 1.7e-05 s⁻¹
G66C C67G	2.61e-05 ± 7.8e-06 s⁻¹						2.84e-05 ± 1.3e-05 s⁻¹
U57A C70G	3.91e-05 ± 1.5e-05 s⁻¹				6.55e-05 ± 1.6e-05 s⁻¹		4.96e-05 ± 1.4e-05 s⁻¹
U56G	0.04 ± 0.003 s⁻¹	0.00186 ± 0.00015 s⁻¹	3170 ± 310 µM	0.0313 ± 0.0012 s⁻¹	0.0168 ± 0.00087 s⁻¹	0.000527 ± 1.8e-05 s⁻¹	0.00628 ± 0.00028 s⁻¹
U57C C71A	2.47e-05 ± 4e-06 s⁻¹				2.96e-05 ± 1e-05 s⁻¹		
C34U A42U			70.4 ± 29 µM				

Variant	kcat (glucosamine-6-phosphate [1])	self-cleavage kobs at 160 uM GlcN6P (glucosamine-6-phosphate [2])	KM (glucosamine-6-phosphate [3])	self-cleavage kobs at 10000 uM GlcN6P (glucosamine-6-phosphate [4])	self-cleavage kobs at 2500 uM GlcN6P (glucosamine-6-phosphate [5])	self-cleavage kobs at 40 uM GlcN6P (glucosamine-6-phosphate [6])	self-cleavage kobs at 640 uM GlcN6P (glucosamine-6-phosphate [7])
C68U U69G	2.33e-05 ± 5.5e-06 s⁻¹				3.45e-05 ± 1.6e-05 s⁻¹		
C68U U69C	8.69e-05 ± 6.8e-06 s⁻¹		2850 ± 730 µM	6.79e-05 ± 1.1e-05 s⁻¹	3.88e-05 ± 1.4e-05 s⁻¹		
G59C C70G	1.6e-05 ± 3.6e-06 s⁻¹						
U56G C71G	0.000632 ± 0.00018 s⁻¹	0.00014 ± 2.1e-05 s⁻¹		0.000942 ± 0.00021 s⁻¹	0.000512 ± 0.0001 s⁻¹	6.71e-05 ± 1.8e-05 s⁻¹	0.000271 ± 4.6e-05 s⁻¹
U31G G51C			210 ± 61 µM				
C68U C71G	1.73e-05 ± 3.6e-06 s⁻¹				1.93e-05 ± 8.3e-06 s⁻¹		2.44e-05 ± 1e-05 s⁻¹
G62C C68A	1.29e-05 ± 3.6e-06 s⁻¹						
G59A C71U	6.15e-05 ± 1.4e-06 s⁻¹		1210 ± 130 µM	5.51e-05 ± 6.9e-06 s⁻¹	4.05e-05 ± 7.8e-06 s⁻¹	< 1e-05 s⁻¹	
U69A C71A	2.44e-05 ± 5.9e-06 s⁻¹						
G62U C68A	1.34e-05 ± 8.7e-07 s⁻¹		129 ± 56 µM				
G62U C68U	1.22e-05 ± 1.2e-06 s⁻¹						< 1e-05 s⁻¹
G62A C71G	1.44e-05 ± 2.8e-06 s⁻¹						
C58A C68G	3.84e-05 ± 1.3e-05 s⁻¹	4.34e-05 ± 1.2e-05 s⁻¹			4.14e-05 ± 1.2e-05 s⁻¹		6.18e-05 ± 1.1e-05 s⁻¹
C58A C68A	3.68e-05 ± 1.1e-05 s⁻¹	4.01e-05 ± 1.7e-05 s⁻¹			3.75e-05 ± 1.7e-05 s⁻¹		5.26e-05 ± 1.6e-05 s⁻¹
G59U C61G	< 1e-05 s⁻¹			< 1e-05 s⁻¹			
C58G C67G C70G	5.76e-05 ± 2.6e-05 s⁻¹				8.09e-05 ± 3e-05 s⁻¹		6.3e-05 ± 2.3e-05 s⁻¹
U57C C68U	6e-05 ± 5.6e-07 s⁻¹		1210 ± 64 µM	5.36e-05 ± 6e-06 s⁻¹	3.96e-05 ± 1.4e-05 s⁻¹		
U57C C68A	1.48e-05 ± 1.3e-06 s⁻¹		184 ± 90 µM	< 1e-05 s⁻¹			
G59U C61A C67A	1.63e-05 ± 4.2e-06 s⁻¹						
C58A G66A	0.000322 ± 5.8e-05 s⁻¹		4640 ± 1500 µM	0.000228 ± 2.8e-05 s⁻¹	9.9e-05 ± 1.6e-05 s⁻¹		4.87e-05 ± 1e-05 s⁻¹
C58U G66C	< 1e-05 s⁻¹	< 1e-05 s⁻¹					< 1e-05 s⁻¹
G63A C70A	1.85e-05 ± 4.5e-06 s⁻¹						
G63A C70G	3.27e-05 ± 9.7e-06 s⁻¹				3.19e-05 ± 9.4e-06 s⁻¹		4.94e-05 ± 1.3e-05 s⁻¹
A64C C68A	< 1e-05 s⁻¹			< 1e-05 s⁻¹		< 1e-05 s⁻¹	
